Test system: MS2 coat protein
Assay: apparent KD of MS2 coat protein; designed switch direction (-1 OFF switch, 1 ON switch): -1; higher = weaker reporter binding
How it was run: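 Each step of the titration lasted 0.8–1.5 h at the lowest concentration and 10–20 min at the highest. The protein, SNAP-549-labelled MS2 coat protein, went from 0.7 or 1.5 nM doubling to 3 µM over RNA switches transcribed on Illumina chips by stalled E. coli RNA polymerase. Normalised cluster fluorescence was curve-fitted, and the per-design median over clusters is given as apparent KD.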

[1] = input ligand: microRNA oligo, concentration not stated
[2] = Eterna round: R95, input ligand: FMN 200 uM
[3] = Eterna round: R95, input ligand: microRNA oligo, concentration not stated
[4] = Eterna round: R95, input ligand: none

Sequence	apparent KD of MS2 coat protein (input ligand: FMN 200 uM) [nM]	apparent KD of MS2 coat protein (input ligand: none) [nM]	apparent KD of MS2 coat protein [1] [nM]	apparent KD of MS2 coat protein [2] [nM]	apparent KD of MS2 coat protein [3] [nM]	apparent KD of MS2 coat protein [4] [nM]
GAUCCUUCUGUUAGGAUAUGCUUUGGGCUUCCGCAGCAGAAGGAACAUGAGGAUCACCCAUGUCAAAUACCAUC [salish99_bmex4_r4_503] (Eterna round: R97, puzzle: Brourd's mod of Exclusion 4)	23.1	23.1	–	–	–	–
UUUAAUUUUUUUUUUUUACAAGCUUUUUGCUCGUCUUAUACAUGAGGAUCACCCAUGUGGGUAAGGGAUAAAUUAUC [JMF 37] (Eterna round: R96, puzzle: Sensor v3, turn-off variant 2)	65.4	59	51.8	–	–	–
UGGGUCACAGGAUAUACAUGAGGAUCACCCAUGUCGUAUUUCGUGGCGGAGAGCUCGAGUAGAAGGGUGCAUCC [Malarala] (Eterna round: R96, puzzle: Exclusion 3)	297	148	58.9	–	–	–
AAUAACAAGCUGAUCCUAAACAUGAGGAUCACCCAUGUGCUCGUCUUGUAAAGUACUAUCACGAAAGUGAUAGUACA [MOD7 of my MOD of Eli's v1-59 (mutation at 11 A to U)] (Eterna round: R97, puzzle: Sensor, turn-off variant 1)	118	142	–	–	–	–
ACGAUGAUCGAAAAGUGUAAACUGACAUGAGGAUCACCCAUGUAGGAUAUGGCUACGAAAAGUAGUCAGAAGGGCAUGUCAUCA [Omei Exc(NG) 3 Av11] (Eterna round: R96, puzzle: Exclusion NG 3)	51.3	47.9	34.6	–	–	–
CAGUACUGAGGAUAUACAUGAGGAUCACCCAUGUUGAGAUGAAAAGAAAUAGUUUCAUGUAGAAGGCGGUGCUG [JR_Ex3_Sub048] (Eterna round: R97, puzzle: Exclusion 3)	365	118	–	–	–	–
GGUUUAGUAGAGGAUAUGUCACUGUCGCAGGAGACAGAAGGCUGCACAUGAGGAUCACCCAUGUCGGUAAUGAG [Eternabot (L1) Solution 89] (Eterna round: R97, puzzle: Exclusion 6)	21.8	16.3	–	–	–	–
GGUAGAGUGGUAGGAUAUCCGUCUGUUUCAGUCGGAGAAGGACCACAGUCACUGGGUCCUAAUAUGGGUGACCAUGUAUCUACC [pwkr exNG1 F6.11] (Eterna round: R96, puzzle: Exclusion NG 1)	1340	348	279	–	–	–
AGAUGGCGAGGAUAUACAUGAGGAUCACCCAUGUGAAUAAUAAUAGUGAGGAAGAAAAGUAGAAGGCGCUGUCA [Mat - Exclusion 3 - Mod of Salish D34] (puzzle: Exclusion 3)	–	–	–	357	42.1	41.2
CUUUGCACGCUGCGGUCCUACAUGAGGAUCACCCAUGUGGUCUGGUGGCGUGGGUCGCCGGACUUGGCUCGUCUUGU [salish99_S_TOV1_R5_041] (Eterna round: R97, puzzle: Sensor, turn-off variant 1)	18.2	18.8	–	–	–	–
AGUUAUUCAGGAUAUGGUGUGUUAUACAUGAGGAUCACCCAUGUGGGUCAUGGUUAGGCCUCAGAAGGGAAUGUUA [salish99_ex5_r4_125] (Eterna round: R97, puzzle: Exclusion 5)	796	1100	–	–	–	–
GGUAUAUGAGGAUAUAGAUUCCUCGACAUGAGGAUCACCCAUGUAAGAUUGGGCCUAGAACUAGAAGGCGUGGCUU [Eternabot (L1) Solution 77] (Eterna round: R97, puzzle: Exclusion 5)	72.1	128	–	–	–	–
ACAUGAGGAUCACCCAUGUCAGGUUGGUUUUCUCCGGCUGUUGAGGAUAUAGUCCGGUAUCCGCGCUAGAAGGUGAGGGUUGGC [Aenatbe mod 13] (Eterna round: R96, puzzle: Exclusion NG 3)	64.5	78.7	54.4	–	–	–
CUCAAACAUGAGGAUCACCCAUGUCAGGAUAUGAUACUAUGUACUUCGGUACAUAGUAUCAGAAGGGAUAUGAA [Ex1-3: 66] (puzzle: Exclusion 1)	–	–	–	–	69.3	–
GGAGGAAGAGAGGAUAUGCGCUCAAGGAGAAAAGCAGAAGGUUCAACAUGAGGAUCACCCAUGUAUGAUCCUCA [AK-MS2ROC-r4-exclusion6-4] (Eterna round: R97, puzzle: Exclusion 6)	342	203	–	–	–	–
UAUUAGCAAGUGAGAUCCGACAUGAGGAUCACCCAUGUGCUCGUCUUAUAAGCUAAUAUAAGAAAACUUAUAUUAGC [Elimod 7 - Jieux - Sensor, turn-off variant 1] (Eterna round: R97, puzzle: Sensor, turn-off variant 1)	242	284	–	–	–	–
CGGGCGUGAGGAUAUCCAUCUGGAUCAGACUAGAUCCUGAUGGAGAAGGCACAUGAGGAUCACCCAUGUACCCG [Eli 4x 4.50] (Eterna round: R97, puzzle: Exclusion 4)	22.2	18.6	–	–	–	–

Sequence	apparent KD of MS2 coat protein (input ligand: FMN 200 uM) [nM]	apparent KD of MS2 coat protein (input ligand: none) [nM]	apparent KD of MS2 coat protein [1] [nM]	apparent KD of MS2 coat protein [2] [nM]	apparent KD of MS2 coat protein [3] [nM]	apparent KD of MS2 coat protein [4] [nM]
GGGAUGUCAGGAUAUCCGAAAGUCUGCCAAUACGGCAGACAGGAGAAGGGACAUGAGGAUCACCCAUGUAAAGA [Aedxear] (puzzle: Exclusion 4)	–	–	–	120	59.4	49.4
GCGCACUAAGUGAGGAUAUCGUUUAUUUUUAGGAUCGAGAAGGCACAUGAGGAUCACCCAUGUUUGACGUGCGC [JR_BMOE4_Sub099] (puzzle: Brourd's mod of Exclusion 4)	–	–	–	–	17.9	–
UCUCGCAGGCAAGGAUAUCCUACAUUGUUCUGGCCCGGGCAUGCUACAUGAGGAUCACCCAUGUGGGAGAAGGUGCGCCACGGC [Design 32] (Eterna round: R96, puzzle: Exclusion NG 2)	47.9	35.4	36	–	–	–
UGUUGUCGCGUAGGAUAUGAGGAUCACCCAUAUAAAGGAUAUGAAAAGAAGGUUCUGAGGAUUACCCAGAAGGACGGGACAACU [pwkr exNG2 2xF5 2xFMN.17] (Eterna round: R96, puzzle: Exclusion NG 2)	207	48.7	35	–	–	–
GAGGAACAUGAGGAUCACCCAUGUAAGGAUAUGCAAAGCGAGGUAGUAGAAGGAGAAGGCAGAAGGUACACGGA [JR_Exclu1_Sub075] (puzzle: Exclusion 1)	–	–	–	31.9	29.6	45.3
CCCGUGUUAGGAUAUAUGGAAGAGCGGACGGGCGCUCCAAGGUAGAAGGAACAUGAGGAUCACCCAUGUAAUAA [Teleerdion] (Eterna round: R97, puzzle: Exclusion 4)	42.6	28.6	–	–	–	–
GCUGCGCGAGGAUAUGCGGUUUGCGCUGUGGCCCGUGGCGUACAUGAGGAUCACCCAUGUAGAAGGCGUGCGGG [Apr-15 SS2-56] (puzzle: Exclusion 2)	–	–	–	–	10.4	–
GGGUGCAGGCUGAGGUCCUACAUGAGGAUCACCCAUGUGGUCCGGUGACGUGGGUCGCCGGACUUGGCUCGUCUUGU [salish99_S_TOV1_R5_012] (Eterna round: R97, puzzle: Sensor, turn-off variant 1)	39	48.6	–	–	–	–
AGCUAGUCAGGAUAUUCUAAUAAUUACAUGAGGAUCACCCAUGUGAAGGGACAAGGGUGUGAAGAAGGGACUAGCG [Omei Ex5 A3] (Eterna round: R97, puzzle: Exclusion 5)	358	529	–	–	–	–
GACUGCUGAGGAUAUACAUGAGGAUCACCCAUGUGCUUCAGCUACGAGAGUAGCAUUGGUAGAAGGUAGUAGUC [LRO-Excl3-04] (puzzle: Exclusion 3)	–	–	–	–	11.1	–
CUUAGACAUGAGGAUCACCCAUGUGAGGAUAUGAUGCAGCAGUGGUCUACGCUGUGCAUCAGAAGGCACAUGUG (puzzle: Exclusion 1)	–	–	–	–	62.4	–
CUUGUGUAAGGAUAUAUGAGUCACGGAAAUAAACCGUGAAGAUAGAAGGUACAUGAGGAUCACCCAUGUAAAAC [Mod of Anonveat 5 - Jieux - Exclusion 4] (Eterna round: R97, puzzle: Exclusion 4)	224	35.2	–	–	–	–
GAACUAAAGCAAAGCUUUAGUCGUACAUGAGGAUCACCCAUGUAGGAUAUGGUAGGCAAAGCAUACCAGAAGGACAGAGUGAUC [Mat - Exclusion NG 3 - Mod of JL - D63] (Eterna round: R96, puzzle: Exclusion NG 3)	211	371	134	–	–	–
UUGUUAUAUGUAGGAUAUGCGUAUUAUUAUUGGGCAGAAGGACAUGAGGAUCACCCAUGUAUGUUGUUGUUAUAUAUUAUAUAU [Title] (Eterna round: R96, puzzle: Exclusion NG 1)	47.2	44.4	34	–	–	–
UCUUACUGAGGAUAUACAUAGAUUUACAUGAGGAUCACCCAUGUUCCUCUAUGUAUAAAUGUAGAAGGCAGAAGAU [Mat - Exclusion 5 - JL Mod - D54] (Eterna round: R97, puzzle: Exclusion 5)	72.9	18	–	–	–	–
GAAAACGUAGGAUAUUAAUACUCAGACAUGAGGAUCACCCAUGUUUGGUGGGUUUAAGAAUGAGAAGGGCGAUGAA [EX5 #6] (Eterna round: R97, puzzle: Exclusion 5)	49	49	–	–	–	–
UGUAUACGAGGAUAUACAUGAGGAUCACCCAUGUGGACGUUGGAGAACGGCCCUCGUAGUAGAAGGCGUAUGAG [Eternabot (L2) Solution 53] (Eterna round: R97, puzzle: Exclusion 3)	51.3	15.4	–	–	–	–
